Measurements from the RNAGym collection of RNA variant scans (doi:10.7554/elife.80360).

B1: Hairpin Ribozyme (parent)
chain: GUCCUCUUUCACGUGCGCGUGAAAGAGAGAAGUGAACCAGAGAAACACACGUUGUGGUAUAUUACCUGGUA

Variants of: B1
Experiment: self-cleavage, relative activity (ratio to wild type); higher = more cleavage; co-transcriptional

Variant | self-cleavage
GUCCUCUUUCACGUGCGCGUGAAAGAGAGAAGUGAACCAGAGAAACACACGUUGUGGUAUAUUACGUGUUA | 0.0961
GUCCUCUUUCACGUGCGCGUGAAAGAGAGAAGUGAACCAGAGAAACACACGUUGUGGUAUAUUACGUGCUA | 0.145
GUCCUCUUUCACGUGCGCGUGAAAGAGAGAAGUGAACCAGAGAAACACACGUUGUGGUAUAUUAGCUGGGA | 0.19
GUCCUCUUUCACGUGCGCGUGAAAGAGAGAAGUGAACCAGAGAAACACACGUUGUGGUAUAUUAGCUGGCA | 0.189
GUCCUCUUUCACGUGCGCGUGAAAGAGAGAAGUGAACCAGAGAAACACACGUUGUGGUAUAUUAUCAGGUA | 0.309
GUCCUCUUUCACGUGCGCGUGAAAGAGAGAAGUGAACCAGAGAAACACACGUUGUGGUAUAUUACCUUCUA | 0.136
GUCCUCUUUCACGUGCGCGUGAAAGAGAGAAGUGAACCAGAGAAACACACGUUGUGGUAUAUUACCUUGAA | 0.269
GUCCUCUUUCACGUGCGCGUGAAAGAGAGAAGUGAACCAGAGAAACACACGUUGUGGUAUAUUACCUUGCA | 0.201
GUCCUCUUUCACGUGCGCGUGAAAGAGAGAAGUGAACCAGAGAAACACACGUUGUGGUAUAUUACCUAGUG | 0.174
GUCCUCUUUCACGUGCGCGUGAAAGAGAGAAGUGAACCAGAGAAACACACGUUGUGGUAUAUUACCGGGGA | 0.125
GUCCUCUUUCACGUGCGCGUGAAAGAGAGAAGUGAACCAGAGAAACACACGUUGUGGUAUAUUACCGGGAA | 0.214
GUCCUCUUUCACGUGCGCGUGAAAGAGAGAAGUGAACCAGAGAAACACACGUUGUGGUAUAUUACCGGGCA | 0.588
GUCCUCUUUCACGUGCGCGUGAAAGAGAGAAGUGAACCAGAGAAACACACGUUGUGGUAUAUUACCUAGGA | 0.3
GUCCUCUUUCACGUGCGCGUGAAAGAGAGAAGUGAACCAGAGAAACACACGUUGUGGUAUAUUACCUAGCA | 0.336
GUCCUCUUUCACGUGCGCGUGAAAGAGAGAAGUGAACCAGAGAAACACACGUUGUGGUAUAUUACCGGCUA | 0.13
GUCCUCUUUCACGUGCGCGUGAAAGAGAGAAGUGAACCAGAGAAACACACGUUGUGGUAUAUUACCGGUUA | 0.165
GUCCUCUUUCACGUGCGCGUGAAAGAGAGAAGUGAACCAGAGAAACACACGUUGUGGUAUAUUACUUAGUA | 0.0865
GUCCUCUUUCACGUGCGCGUGAAAGAGAGAAGUGAACCAGAGAAACACACGUUGUGGUAUAUUACUUUGUA | 0.334
GUCCUCUUUCACGUGCGCGUGAAAGAGAGAAGUGAACCAGAGAAACACACGUUGUGGUAUAUUACCUCGGA | 0.576
GUCCUCUUUCACGUGCGCGUGAAAGAGAGAAGUGAACCAGAGAAACACACGUUGUGGUAUAUUAACUGGUC | 1.07

Variant | self-cleavage
GUCCUCUUUCACGUGCGCGUGAAAGAGAGAAGUGAACCAGAGAAACACACGUUGUGGUAUAUUACUAGGUA | 0.162
GUCCUCUUUCACGUGCGCGUGAAAGAGAGAAGUGAACCAGAGAAACACACGUUGUGGUAUAUUACCGAGUA | 0.138
GUCCUCUUUCACGUGCGCGUGAAAGAGAGAAGUGAACCAGAGAAACACACGUUGUGGUAUAUUAAGUGGUA | 0.0953
GUCCUCUUUCACGUGCGCGUGAAAGAGAGAAGUGAACCAGAGAAACACACGUUGUGGUAUAUUACCCGGUA | 0.227
GUCCUCUUUCACGUGCGCGUGAAAGAGAGAAGUGAACCAGAGAAACACACGUUGUGGUAUAUUACCGGGUA | 0.28
GUCCUCUUUCACGUGCGCGUGAAAGAGAGAAGUGAACCAGAGAAACACACGUUGUGGUAUAUUACCAGGUA | 0.229
GUCCUCUUUCACGUGCGCGUGAAAGAGAGAAGUGAACCAGAGAAACACACGUUGUGGUAUAUUAUCUGGCA | 0.111
GUCCUCUUUCACGUGCGCGUGAAAGAGAGAAGUGAACCAGAGAAACACACGUUGUGGUAUAUUAUCUGGGA | 0.148
GUCCUCUUUCACGUGCGCGUGAAAGAGAGAAGUGAACCAGAGAAACACACGUUGUGGUAUAUUACCUGCUU | 0.57
GUCCUCUUUCACGUGCGCGUGAAAGAGAGAAGUGAACCAGAGAAACACACGUUGUGGUAUAUUACCUGGUU | 0.796
GUCCUCUUUCACGUGCGCGUGAAAGAGAGAAGUGAACCAGAGAAACACACGUUGUGGUAUAUUACCUGGUC | 1.42
GUCCUCUUUCACGUGCGCGUGAAAGAGAGAAGUGAACCAGAGAAACACACGUUGUGGUAUAUUACCUGGUG | 1.04
GUCCUCUUUCACGUGCGCGUGAAAGAGAGAAGUGAACCAGAGAAACACACGUUGUGGUAUAUUACCUAAUA | 0.103
GUCCUCUUUCACGUGCGCGUGAAAGAGAGAAGUGAACCAGAGAAACACACGUUGUGGUAUAUUACCUACUA | 0.19
GUCCUCUUUCACGUGCGCGUGAAAGAGAGAAGUGAACCAGAGAAACACACGUUGUGGUAUAUUACCUGUAA | 0.346
GUCCUCUUUCACGUGCGCGUGAAAGAGAGAAGUGAACCAGAGAAACACACGUUGUGGUAUAUUACGUGGCA | 0.132
GUCCUCUUUCACGUGCGCGUGAAAGAGAGAAGUGAACCAGAGAAACACACGUUGUGGUAUAUUACGUGGAA | 0.273
GUCCUCUUUCACGUGCGCGUGAAAGAGAGAAGUGAACCAGAGAAACACACGUUGUGGUAUAUUACGUGGGA | 0.2
GUCCUCUUUCACGUGCGCGUGAAAGAGAGAAGUGAACCAGAGAAACACACGUUGUGGUAUAUUACCUGAAA | 0.434
